Test results taken from the nanobody polyreactivity screen of Harvey et al. (2022).

Assay: yeast display, Sf9 membrane polyspecificity reagent, FACS + sequencing; frameworks hold sequencing errors
In short: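 Genes from sorted yeast were amplified by colony PCR, read by MiSeq 2 × 250 sequencing and filtered on CDR length. These cells carried a synthetic nanobody library in Saccharomyces cerevisiae BJ5465 and were sorted by FACS into low and high (top ~1%) gates on anti-HA and streptavidin fluorescence. Polyreactivity is labelled according to the gate of origin.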

Sequence	polyreactivity (PSR sort gate)
QVQLVESGGGLVQAGGSLRLSCAASGLAFVFNAMGWYRQAPGKERELVAAISSGDDTNYADSVKGRFTISRDNAKNTVYLQMNSLKPEDTAVYNCAKTSDPIKRPYYYWGQGTQVTVSS	low polyreactivity
QVQLVESGGGLVQAGGSLRLSCAASVIIISYYAIGWYRQAPGKERELVAAITRGGGRTYYADSVKGRFTISRDNAKNTVYLQMNSLKPEDTAVYYCKALSRYVENDYWGQGTQVTVSS	high polyreactivity
QVQLVESGGGLVQAGGSLRLSCAASGITFVTYAMGWYRKAPGKERELVAAISRSGGRTYYADSVKGRFTISRDNAKNTVYLQMNSLKPEDTAVYYCAAERKNKYDYWGQGTQVTVSS	high polyreactivity
QVQLVESGGGLDQAGGSLRLSCAASGTTFVPNDMGWYRQAPGKERELVAAITDSGGSTYYADSVWGRFTISRDNAKNTVYLQMNILKPEDTAVYYCADVQHYVTHMDYWGQGNQVTVSS	low polyreactivity
QVQLVESGGGLLQAGGSLRLSCAASGFTIKYYAMGWYRPAPGKERELVAAIRGSGAGTYYADSVKGRFTISRDNAKNTVYLQMNSLKPEDTAVYYCNKRWTYQWDDYWGQGTQVTVSS	high polyreactivity
QVQLVESGGGLVQAGGSLRLSCAATGFTFRYNAMGWYRQAPGKERELGAAISIGGTTNYADSVKGRFTISRDNAKNTVYLQMNSLKPEDTAVYYCNALGTYFRRYDYWGQGTQVTVSS	low polyreactivity
QVQLVESGGGLVQAGGSLRLSCAASGSTFETNAMGWYRQAPGKERELVAAISVSGGDTYYADSVKGRFTISRDNAKNTVYLQMNSLKPEDTAVYYCAAAERGYIFPDRMRYDYWGQGTQVTVSS	low polyreactivity
QVQLVESAGGLVQAGGSLRLSCAASGSTFGLNAMGRYRQAPGKERELVAAITRSGATTYYADSVKGRFTISRDNAKNTVYLKMNSLKPEDTAVYYCNKVYRPYTKRYYWGQGTQVTVSS	high polyreactivity
QVQLVESGGGLVQAGGSLRLSCAASGLIFVSYAMGWYRPAPGKERELVASITDSDSSTYYADSVKGRFTISRDNAKNTVYLQMNSLKPEDTAVYYCATGGRTEIWYPTLDYWGQGTQVTVSS	low polyreactivity
QVQLVESGGGLVQAGGSLRLSCAASGSIFYLYAMGWYRPAPGKERELVAAISRSGASTYYADSVKGRFTISRDNAKNTVYLQMNSLKPEDTAVYYCAAYKIWGRVRYDYWGQGTQVTVSS	low polyreactivity
QVQLVESGGGLVQAGGSLRLSCAASGSIFPYNAMGWYRQERGNERELVAAISISGGSTYYADSVKGRFTISRDNAKNTVYFQMNSLKPEDTAVYYCAARQTLSSAFDYWGQGTQVTVSS	low polyreactivity
QVQLVESGGGLVQAGGSLRLSCAASGRTFYYYVMGWYRQAPGKERELVAGITWSGGGTYYADSVKGRFTISRYNAKNTVYLQMNRLKPEDTAVYYCAKKDTLSNRWYGYWGEGTQVTVSS	high polyreactivity
QVQLVESGGGLLQAGGSLRLSCSATGSLFEGNGMGWYRQAPGKERELVASITRSGGSTYYADSVKGRFTISRDNAKNTVYLQINSLIPEDTAVYYCAAYPVRYYNQYDYWGLGTQVTVSS	low polyreactivity
QVQLVESGGGLVQAGGSLRLSCAASGSIFYPYAMGWYRQAPGKERELVAAITTGGGSTYADSVKGRFTISRDNAKNTVYLQMNSLKPEDTAVYYCNTDEYDIGSVYTLWEYDYWGQGTQVTVSS	low polyreactivity
QVQLVESGGGLVQAGGSLRLSCAASGITFAGYAMGWYRQAPGKERELVAAISRGGSTYYADSVKGRFTISRDNAKNTVYLQMNSLKPEDTAVYYCNTDDQQGYFTYTGWNYNYWGQGTQVTVSS	high polyreactivity
QVQLVESGGGLVQAGGSLRLSCAASGFIFSIYTMGWYRQAPGKERELVAAISWSGGSTYYADSVKGRFTISRDNAKNTVYLQMNSLKPEDTAVYYCNRVQFSPVYRFREYDYWGQGSQVTVSS	high polyreactivity
QVQLVESGVGFVQAGASLRLSSAASGSIFRINAMGWYRQAPGKVRELVAAITRSGGSTFYADSVKGRFTMSRDYAKNTVYFQMHSLTPEDTAVYFCAAVWYYSTVPARYEYWGQGTQVTVSS	low polyreactivity
QVQLVESGGGLVQAGGSLRLSCAASGITFWGYAMGWYRQAPGKEREFVARINWSGGRTYYAESVKGRFTNSRDNAKNTVYLQMNSLKPEDTAVYYCAATSLIYGYRTYDYWGQGTQVTVSS	high polyreactivity
QVQLVESGGGLVQAGGSLRLSCAASGRIFGYNAMGWYRQAPGKERELVAAITQSGGTTYYADSVKGRFTISRDYAKNTVYLQMNSLKPEDTAVYYCARGTRYPNNPFDYWGLGTQVTVSS	high polyreactivity
QVQLVESGGGLVQAGGSLRLSCAASGSTIHINAMGWYRQAPGKERELVADINWSGGSTYYADSVKGRFTISRDNAKNTVYLQMNSLKPADSAVYYCAADVGVFTYSPYDAGEHDYWGQGSQVTVSS	low polyreactivity
QVQLVESGGGLVQAGGSLRLSCAASGFIFLRYAMGWYRQAPGKERELVAAISSSGGRTTYADSVKGRFTISRDNAKNTLYLQMNSLKPEDTAVYYCNADLWPGNHDGYWGQGTQVTVSS	low polyreactivity
QVQLVESGGGLVQAGGSLRLSCAASGLILPDYAMGWYRQAPGKERELVAAISQRGGSTYYADSVKGRFTISRDNAKNSVYLQMYSLKPEDTAVYYCNALFRLRAYAEMDYWGQGTQVTVSS	high polyreactivity
QVQLVESGGGLVQAGGILRLSCAASGSIFVKYTMGWYRQAPGKERELVAAISFRGGSTYYADSVKGRFTISRDNAKNTVYLQMNSLKPEDTAVYYCNADGGWWPEYYWGQGTQVTVSS	low polyreactivity
QVQLVQSGGGLVQAGGSLRVSCAPSGRIYAMGWSRQAPGKERELVARITKSGTSTYYADSVKGRFTISRDNAKNTVYLQMNSMKPEDTAVYYCATATFYRSVLYGYWGQGTQVTVSS	high polyreactivity
QVQHVESGGGLVQAGGSHRLSCAASGRIFTQNSMGWYRQAPGKERELVAAINATDGSTYADSVKGRFTISRDNAKNTVYLQMKSLKREDTSVYYCYFTGGPYDFTRWSEFDHWGQGTQVTVSS	low polyreactivity
QVQLVESGGGLVQAGGSLRLSCAASVRTFKWYAMGWYRQAPGKERELVAGISRGAGRTYYADSVKWRFTMSRDNAKNTVYLQMNSLKPEDTAVYYCAAVPSYHSTSPFYYWGQGTQVTVSS	high polyreactivity
QVQLVESGGGLVQAGGSLRLSCAASGSILGPYAMGWYRQAPGKERELVAAISWGGGSTYYADSVKGRFTISRDNAKNTVYLQMNSLKPEDTAVYYCAADFGYYDYDYWGQGTQVTVSS	low polyreactivity
QVQLVESRGGLVQAGGSLPLSCAASGSIFSRNALGWYRQAPGKERELVAAITWSGGSTYYADSVKGRFTISRDNAKNTVYLQMNSLKAEDTAVYYCNAKRSSRIKQLEYDYWGKGTQVTVSS	high polyreactivity
QVQLVESGGGLVQAGGSLRLSCAASGSIFNANAMGWYRQAPGKERELVAGIRSGSSTNYADSVKGRFTISRDNAKNTVYFQMNSLKPEDTAVYYCATEGYWVYGFDDEDWGQGTQVTVSS	low polyreactivity
QVQLVESGGGLVQAGGSLRLSCAASGRIFYLYTMGWYRQAPGKERELVAASTRAGRTYYADSVKGRFTISRDNAKNTVYLQMNSLKPEDTAVYYCAAAFLSRVQGYDSWGQGTQVTVSS	high polyreactivity
